According to US20200299347A1:

Target: FGFR3
Assay: cell-based or functional assay

FGF18 EC50 (nM), BaF3/FGFR3 cell proliferation (ATP) assay: 0.02 nM
Substance: sprifermin (rhFGF18) (from UniProt O76093 28-196) (ligand)
